{"source": "patent US20140212976", "test_system": "T1, bifurcating NADP Fe-only hydrogenase of C. autoethanogenum", "T1 sequence": "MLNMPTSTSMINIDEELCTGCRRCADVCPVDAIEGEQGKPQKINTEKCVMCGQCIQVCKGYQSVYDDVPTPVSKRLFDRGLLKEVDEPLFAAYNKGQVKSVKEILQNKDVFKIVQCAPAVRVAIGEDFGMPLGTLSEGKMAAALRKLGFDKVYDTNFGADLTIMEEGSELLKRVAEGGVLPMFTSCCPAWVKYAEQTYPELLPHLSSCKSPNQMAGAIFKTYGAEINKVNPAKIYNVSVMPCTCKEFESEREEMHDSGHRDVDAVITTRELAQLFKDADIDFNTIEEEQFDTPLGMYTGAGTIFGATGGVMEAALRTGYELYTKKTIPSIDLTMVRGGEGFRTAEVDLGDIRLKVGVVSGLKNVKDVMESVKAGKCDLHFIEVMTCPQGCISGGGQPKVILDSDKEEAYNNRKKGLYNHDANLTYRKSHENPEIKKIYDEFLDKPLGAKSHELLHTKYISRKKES"}
{"substance": "bifurcating NADP formate dehydrogenase of C. autoethanogenum", "values": [{"measurement": "Formate-hydrogen lyase activity (using H2)", "value": "a high activity of 2.4 U/mg was detected"}]}
